The text below walks through data of publication PMC8280134.

In the assay the target is GII.4 P-domain (crystallisation construct) (human norovirus GII.4). Put plainly: crystal structure; P-domain and Fab mixed 1:1.5, complex isolated by gel filtration; crystals in 0.1 M BIS-TRIS propane pH 8.5, 0.2 M KSCN, 20% w/v PEG 3350, 20 °C.

Substance “GII.4 P-domain (crystallisation construct) (domain or fragment)” displayed a stoichiometry N of 2.
